Measured values as given in US6897017.

Key:
Assay in all cases: cell-based or functional assay
[1] = target: WinZip-B1-DHFR[2:I114A] (murine) (UniProt P00375)
[2] = target: WinZip-B2 fused to DHFR[2:I114A] (clone of LibB-DHFR[2:I114A]) (murine) (UniProt P00375)
[3] = target: GCN4-DHFR[2:I114A] (murine)

Substance | Frequency of dominant pair at P12, competition selection (I114A) [1] [%] | Selection factor, competition selection (I114A) [1] | frequency of the pair among colonies sequenced at P10 [1] [%] | Frequency of dominant pair at P12, shuffling WinZip-A1 + LibB-DHFR[2:I114A] [2] [%] | Selection factor, shuffling WinZip-A1 + LibB-DHFR[2:I114A] [2] | frequency of the pair among clones sequenced at P10 [2] | GCN4 zippers among sequences from passage 9 of model competition selection (of 24 sequences) [3]
WinZip-A1-DHFR[1] (from UniProt P00375 1-107) (designed binder) | 82 | 3.2e+06 | 33 | 67 | 87000 | 3 of 5 clones | –
GCN4-DHFR[1] (from UniProt P03069 253-274; P00375 1-107) | – | – | – | – | – | – | 0
